# Source: patent publication US10962518B2, “Dissolution test for sensitive drugs” (ROYAN INSTITUTE, priority 2017, dated 2021)
# Like-named read-outs stand apart in the source and are kept apart here.
# Legend:
# [1] = cited from earlier work; for tstability of drug: at 37° C.
# [2] = hGH stability tests in phosphate buffer (0.01 ppm hGH solution, stability versus time); format: physicochemical; conditions: 0.01 ppm hGH in 0.05 M phosphate buffer pH=7.4
# Protocol: In this example, exemplary systems and methods were used for performing dissolution tests on human growth hormone (hGH), consistent with an exemplary embodiment of the present disclosure. The release performance of hGH was evaluated for a 14-day period. First, the stability of hGH in a phosphate buffer at 37±1° C. was tested. To this end, a 0.01 ppm hGH solution in a 0.05 M phosphate buffer with a pH=7.4 was prepared. The prepared hGH solution was maintained at a temperature of approximately 37±1° C. and stability analyses were performed at 0, 1, 2, 3, 4, 6, 12, and 24 hours.
# FIG. 4 illustrates an hGH stability versus time graph obtained from stability tests performed at 37±1° C., consistent with one or more exemplary embodiments of the present disclosure. […] Therefore, if a dissolution test was to be performed by available USP apparatuses, the hGH solution would have to be prepared, sampled and analyzed every 2 hours, which means for a dissolution evaluation that needs to be performed during a 14-day period, at least 168 dissolution tests must be performed.
# The stability of hGH was then tested in a phosphate buffer at 5±2° C. To this end, a 0.01 ppm hGH solution in a 0.05 M phosphate buffer with a pH=7.4 was prepared. The prepared hGH solution was maintained at a temperature of approximately 5±2° C. and stability analyses were performed at 0, 1, 2, 3, 4, and 5 days. […]
compound,measurement,setting,value
"O=C1CN(/N=C/c2ccc(-c3ccc([N+](=O)[O-])cc3)o2)C(=O)[N-]1.[Na+] [Dantrolene, dantrolene sodium]",tstability of drug,[1]; Buffer with pH 7.4,1 h
same,time for which the drug is stable in the dissolution medium,"[1]; phosphate buffer with a pH of 7.4, approximately 37° C.",1 h
COc1ccc2[nH]c([S+]([O-])Cc3ncc(C)c(OC)c3C)nc2c1 (stereo not shown) [Omeprazole],tstability of drug,[1]; phosphate buffer pH 7.5,<10 h
"IGF-I: IGF-I, a drug listed in Table 2 with serum as its dissolution medium",tstability of drug,[1]; serum,<10 h
"hGH: human growth hormone (hGH), the temperature-sensitive drug used in the Example",tstability of drug,[1]; PBS buffer pH = 7.4,1 h
same,time for which the hGH solution is stable,"[2]; 5±2° C., analyses at 0-5 days (FIG. 5)",1 days
same,time for which the hGH solution is stable,"[2]; 37±1° C., analyses at 0-24 hours (FIG. 4)",0.083 days
